Measured values published in the supplement of paper PMC9112550, “Optimization of the antimicrobial peptide Bac7 by deep mutational scanning” (BMC Biology, 2022).

Test system: Escherichia coli TOP10
Assay: shrunken log2 fold change of peptide-encoding DNA abundance (4.5 h post-induction vs induction); higher = less antimicrobial activity (less host growth inhibition)
Conditions: time post-induction: 4.5 h; library: site-saturation at positions 5, 18, 19, 20
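Further: peptides expressed intracellularly from a pBAD plasmid library in pooled LB shake-flask culture, induced with 0.3% L-arabinose, DNA abundance read by NGS, three biological replicates, DESeq2 with apeglm shrinkage.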

In order of falling “shrunken log2 fold change” value:
1. RRIRGRPPRLPRPRPRPAAVPRP  1.51
2. RRIRGRPPRLPRPRPRPESGPRP  1.12
3. RRIRWRPPRLPRPRPRPRESPRP  0.846
4. RRIRRRPPRLPRPRPRPPMCPRP  0.622
5. RRIRSRPPRLPRPRPRPMLWPRP  0.619
6. RRIRGRPPRLPRPRPRPWMAPRP  0.439
7. RRIRVRPPRLPRPRPRPPGLPRP  0.373
8. RRIRPRPPRLPRPRPRPATSPRP  0.358
9. RRIRWRPPRLPRPRPRPMWRPRP  0.328
10. RRIRCRPPRLPRPRPRPEPDPRP  0.307
11. RRIRDRPPRLPRPRPRPGWFPRP  0.297
12. RRIRWRPPRLPRPRPRPWVLPRP  0.287
13. RRIRKRPPRLPRPRPRPVCYPRP  0.242
14. RRIRNRPPRLPRPRPRPRVRPRP  0.212
15. RRIRRRPPRLPRPRPRPSWLPRP  0.202
16. RRIRVRPPRLPRPRPRPHCRPRP  0.199
17. RRIRSRPPRLPRPRPRPLDEPRP  0.189
18. RRIRGRPPRLPRPRPRPHYCPRP  0.167
19. RRIRTRPPRLPRPRPRPWQRPRP  0.157
20. RRIRCRPPRLPRPRPRPENAPRP  0.117
21. RRIRWRPPRLPRPRPRPQRCPRP  0.103
22. RRIRWRPPRLPRPRPRPLNWPRP  0.101
23. RRIRDRPPRLPRPRPRPSIEPRP  0.089
24. RRIRSRPPRLPRPRPRPCAEPRP  0.0817
25. RRIRKRPPRLPRPRPRPIMWPRP  0.0599
26. RRIRIRPPRLPRPRPRPWQQPRP  0.0529
27. RRIRRRPPRLPRPRPRPMTIPRP  0.0416
28. RRIRCRPPRLPRPRPRPNAVPRP  0.0238
29. RRIRDRPPRLPRPRPRPGIPPRP  0.016
30. RRIRLRPPRLPRPRPRPIWMPRP  0.0146
31. RRIRGRPPRLPRPRPRPHEQPRP  0.0117
32. RRIRSRPPRLPRPRPRPMKQPRP  0.00692
33. RRIRTRPPRLPRPRPRPDDDPRP  -0.00136
34. RRIRKRPPRLPRPRPRPCDMPRP  -0.00141
35. RRIRDRPPRLPRPRPRPNCIPRP  -0.00269
36. RRIRLRPPRLPRPRPRPEHYPRP  -0.00385
37. RRIRRRPPRLPRPRPRPFESPRP  -0.0115
38. RRIRYRPPRLPRPRPRPLENPRP  -0.0143
39. RRIRLRPPRLPRPRPRPQVMPRP  -0.0202
40. RRIRFRPPRLPRPRPRPLAMPRP  -0.0206
41. RRIRARPPRLPRPRPRPQDLPRP  -0.0381
42. RRIRERPPRLPRPRPRPKAIPRP  -0.0487
43. RRIRFRPPRLPRPRPRPKMLPRP  -0.0622
44. RRIRARPPRLPRPRPRPVQFPRP  -0.0854
45. RRIRFRPPRLPRPRPRPMLCPRP  -0.103
46. RRIRSRPPRLPRPRPRPNSCPRP  -0.121
47. RRIRYRPPRLPRPRPRPYDFPRP  -0.138
48. RRIRQRPPRLPRPRPRPRYCPRP  -0.143
49. RRIRARPPRLPRPRPRPHRIPRP  -0.145
50. RRIRDRPPRLPRPRPRPHPIPRP  -0.152
51. RRIRYRPPRLPRPRPRPATQPRP  -0.163
52. RRIRDRPPRLPRPRPRPWFVPRP  -0.18
53. RRIRDRPPRLPRPRPRPWDRPRP  -0.193
54. RRIRVRPPRLPRPRPRPIDAPRP  -0.206
55. RRIRHRPPRLPRPRPRPDENPRP  -0.225
56. RRIRIRPPRLPRPRPRPCYHPRP  -0.265
57. RRIRSRPPRLPRPRPRPVCYPRP  -0.268
58. RRIRIRPPRLPRPRPRPQDSPRP  -0.269
59. RRIRVRPPRLPRPRPRPSLFPRP  -0.269
60. RRIRNRPPRLPRPRPRPQYQPRP  -0.317
61. RRIRTRPPRLPRPRPRPFIMPRP  -0.339
62. RRIRQRPPRLPRPRPRPPKCPRP  -0.37
63. RRIRHRPPRLPRPRPRPVFTPRP  -0.392
64. RRIRLRPPRLPRPRPRPWCDPRP  -0.437
65. RRIRARPPRLPRPRPRPSSHPRP  -0.471
66. RRIRVRPPRLPRPRPRPSITPRP  -0.504
67. RRIRSRPPRLPRPRPRPHYFPRP  -0.51
68. RRIRFRPPRLPRPRPRPCYRPRP  -0.573
69. RRIRVRPPRLPRPRPRPIYDPRP  -0.576
70. RRIRHRPPRLPRPRPRPRNEPRP  -0.588
71. RRIRIRPPRLPRPRPRPTYPPRP  -0.592
72. RRIRFRPPRLPRPRPRPIYDPRP  -0.626
73. RRIRIRPPRLPRPRPRPTNKPRP  -0.687
74. RRIRYRPPRLPRPRPRPCYFPRP  -1.04
75. RRIRIRPPRLPRPRPRPSFLPRP  -1.11
